# Residue numbers refer to the chain shown, from its start.
# T1: IL1RL2 over-expressed on Expi293 cells (UniProt Q9HB29 20-575, limits assumed)
# T1 construct: whole, on cells; Target of the flow cytometry assay; MFI ratio is over-expressing cells over parent cells
# T1 sequence (looked up): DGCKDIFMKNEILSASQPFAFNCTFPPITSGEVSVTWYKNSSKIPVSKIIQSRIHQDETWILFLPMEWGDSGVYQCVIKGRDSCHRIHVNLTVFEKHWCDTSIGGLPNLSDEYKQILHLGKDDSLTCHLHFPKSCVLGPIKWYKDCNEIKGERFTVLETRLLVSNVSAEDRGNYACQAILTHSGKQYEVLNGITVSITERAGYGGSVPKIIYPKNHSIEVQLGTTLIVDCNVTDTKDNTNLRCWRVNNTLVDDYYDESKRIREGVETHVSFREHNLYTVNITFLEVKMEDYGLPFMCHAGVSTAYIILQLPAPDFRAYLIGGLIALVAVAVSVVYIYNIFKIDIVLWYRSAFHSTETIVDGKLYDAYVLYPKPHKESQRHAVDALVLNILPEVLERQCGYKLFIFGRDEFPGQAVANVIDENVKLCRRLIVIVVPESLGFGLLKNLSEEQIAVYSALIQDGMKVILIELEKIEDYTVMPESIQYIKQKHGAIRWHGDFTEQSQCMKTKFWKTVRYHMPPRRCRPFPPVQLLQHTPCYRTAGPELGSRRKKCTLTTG
# T2: IL1RL2 (UniProt Q9HB29 20-335, limits assumed)
# T2 construct: Soluble analyte of the SPR runs
# T2 sequence (looked up): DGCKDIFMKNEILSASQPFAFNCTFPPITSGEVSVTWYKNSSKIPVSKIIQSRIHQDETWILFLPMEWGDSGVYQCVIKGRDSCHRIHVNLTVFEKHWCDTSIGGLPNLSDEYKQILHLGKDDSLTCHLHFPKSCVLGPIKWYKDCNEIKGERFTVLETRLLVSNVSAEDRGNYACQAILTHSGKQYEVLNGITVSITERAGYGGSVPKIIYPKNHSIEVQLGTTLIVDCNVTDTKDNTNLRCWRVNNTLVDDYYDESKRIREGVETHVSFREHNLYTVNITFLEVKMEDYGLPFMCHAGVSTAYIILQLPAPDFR
# B1: TSLP-3 (VHH)
# VHH: EVQLVESGGGLVQPGGSLRLSCAASGRIFSTYFMGWFRQAPGKERELVSAIFSDGSTYYADSVKGRFTISADNSKNTAYLQMNSLKPEDTAVYYCALDLSTVRWGQGTLVTVSS
# notes: VHH-Fc (IgG2 Fc); not shown: IgG2 Fc of the VHH-Fc format
# B2: TSLP-14 (VHH)
# VHH: B1 VHH with R27S, T31S, F33W, L97K, L99Y, S100F, T101G, V102T, R103G
# notes: as for B1
# B3: TSLP-12 (VHH)
# VHH: B1 VHH with R27F, T31S, F33W, L97I, L99W, S100Y, T101L, V102N, R103S
# notes: as for B1
# B4: TSLP-6 (VHH)
# VHH: EVQLVESGGGLVQPGGSLRLSCAASGMTFSSYVMGWFRQAPGKEREFVGEIILSKGFTYYADSVKGRFTISADNSKNTAYLQMNSLKPEDTAVYYCASGPGYYDSSAYYLYAFDIWGQGTLVTVSS
# notes: as for B1
# B5: TSLP-24 (VHH)
# VHH: EVQLVESGGGLVQPGGSLRLSCAASGGIFSINDIGWFRQAPGKEREFVAALSWIIGSGVYTYYADSVKGRFTISADNSKNTAYLQMNSLKPEDTAVYYCANEYGWGQGTLVTVSS
# notes: as for B1
# B6: TSLP-21 (VHH)
# VHH: EVQLVESGGGLVQPGGSLRLSCAASGNIFSRYIMGWFRQAPGKERELVSAIFSDGSTLYADSVKGRFTISADNSKNTAYLQMNSLKPEDTAVYYCAKGGYSSGWFDYWGQGTLVTVSS
# notes: as for B1
# B7: TSLP-18 (VHH)
# VHH: EVQLVESGGGLVQPGGSLRLSCAASGNIFTRNIMCWFRQAPGKEREGVSCISTGDGSTYYADSVKGRFTISADNSKNTAYLQMNSLKPEDTAVYYCAADSETSGNWVWGQGTLVTVSS
# notes: as for B1
# B8: TSLP-7 (VHH)
# VHH: EVQLVESGGGLVQPGGSLRLSCAASGLTFGTHVMGWFRQAPGKERELVTAINPAALTTYYADSVKGRFTISADNSKNTAYLQMNSLKPEDTAVYYCARDFWSAGDSWGQGTLVTVSS
# notes: as for B1
# B9: TSLP-41 (VHH)
# VHH: EVQLVESGGGLVQPGGSLRLSCAASGRTFSAHSVYTMGWFRQAPGKEREWVSAIFSDGDTYYADSVKGRFTISADNSKNTAYLQMNSLKPEDTAVYYCAIDEGMDYDGNFYDWGQGTLVTVSS
# notes: as for B1
# B10: TSLP-11 (VHH)
# VHH: EVQLVESGGGLVQPGGSLRLSCAASGFTFDDSDMGWFRQAPGKEREFVGAISWSGDSTYYKYYADSVKGRFTISADNSKNTAYLQMNSLKPEDTAVYYCANQYGWGQGTLVTVSS
# notes: as for B1
# B11: TSLP-20 (VHH)
# VHH: EVQLVESGGGLVQPGGSLRLSCAASGFKLGYYAMGWFRQAPGKEREGVATIAGGTTYYADSVKGRFTISADNSKNTAYLQMNSLKPEDTAVYYCAAIGWRWGQGTLVTVSS
# notes: as for B1
# B12: TSLP-120 (antibody, V domains shown)
# VH: QVQLVQSGAEVKKPGSSVKVSCKASGGTFSTYAISWVRQAPGQGLEWMGGIISINYAQKFQGRVTITADESTSTAYMELSSLRSEDTAVYYCAWGAKYALDSWGQGTLVTVSS
# VL: DIQMTQSPSSLSASVGDRVTITCRASQTIGTYLNWYQQKPGKAPKLLIYSASSLQSGVPSRFSGSGSGTDFTLTISSLQPEDFATYYCQQTDGNPPTFGQGTKVEIK
# B13: IL1RL2-24 (VHH)
# VHH: EVQLVESGGGLVQPGGSLRLSCAASGRTFSTYDMGWFRQAPGKERELVASIVWIGGRTYYADSVKGRFTISADNSKNTAYLQMNSLKPEDTAVYYCADVNGDWGQGTLVTVSS
# notes: VHH-Fc based on IgG2 Fc
# B14: IL1RL2-30 (VHH)
# VHH: EVQLVESGGGLVQPGGSLRLSCAASGGTLRGFDIGWFRQAPGKEREFVAAVTWSGGSTNYADSVKGRFTISADNSKNTAYLQMNSLKPEDTAVYYCADVNGDWGQGTLVTVSS
# notes: VHH-Fc based on IgG2 Fc
# B15: IL1RL2-2 (VHH)
# VHH: EVQLVESGGGLVQPGGSLRLSCAASGFTRSYYTMGWFRQAPGKERELVASITRGGGTTYADSVKGRFTISADNSKNTAYLQMNSLKPEDTAVYYCADVNGDWGQGTLVTVSS
# notes: VHH-Fc based on IgG2 Fc
# B16: IL1RL2-31 (VHH)
# VHH: B15 VHH with F27R, R29F, S30D, Y31S, T33D, R53F, G56V, T58N
# notes: VHH-Fc based on IgG2 Fc
# B17: IL1RL2-11 (VHH)
# VHH: EVQLVESGGGLVQPGGSLRLSCAASGRTFSRYAMGWFRQAPGKEREFVAAINWSGARTYYADSVKGRFTISADNSKNTAYLQMNSLKPEDTAVYYCAVSQPLNYYTYYDARRYDWGQGTLVTVSS
# notes: VHH-Fc based on IgG2 Fc
# B18: IL1RL2-29 (VHH)
# VHH: B17 VHH with R27G, R31A, A33T, N52S, A56G, R57S
# notes: VHH-Fc based on IgG2 Fc
# B19: IL1RL2-23 (VHH)
# VHH: B17 VHH with R27P, R31T, N52S, R57N
# notes: VHH-Fc based on IgG2 Fc
# B20: TSLP-15 (VHH)
# VHH: EVQLVESGGGLVQPGGSLRLSCAASGFILDDYAMGWFRQAPGKEREFVATIAGGYTYYADSVKGRFTISADNSKNTAYLQMNSLKPEDTAVYYCPVFDGYTRIHWGQGTLVTVSS
# notes: as for B1
# B21: TSLP-31 (VHH)
# VHH: EVQLVESGGGLVQPGGSLRLSCAASGNIFANNIMGWFRQAPGKERELVSAIFSDGSTYYADSVKGRFTISADNSKNTAYLQMNSLKPEDTAVYYCARDDIVGAWSLDCWGQGPLMTVSS
# notes: as for B1
# B22: TSLP-34 (VHH)
# VHH: B21 VHH with N27H, D99A, W104A, C108Y, P113T, M115V
# notes: as for B1
# B23: TSLP-33 (VHH)
# VHH: EVQLVESGGGLVQPGGSLRLSCAASGFSLDYYGMGWFRQAPGKEREFVAAIHWNGDSTLYADSVKGRFTIIADNSKNTAYLQMNSLKPEDTAVYYCARGFSGWFPFDYWGQGTLVTVSS
# notes: as for B1
# B24: TSLP-27 (VHH)
# VHH: EVQLVESGGGLVQPGGSLRLSCAASGSTFSDRAMGWFRQAPGKERELVSAIFSDGSTLYADSVKGRFTISADNSKNTAYLQMNSLKPEDTAVYYCASDVGMDVWGQGTLVTVSS
# notes: as for B1
# B25: TSLP-28 (VHH)
# VHH: EVQLVESGGGLVQPGGSLRLSCAASGFTFDDYEMGWFRQAPGKEREFVGSIGCDGSTLYADSVKGRFTISADNSKNTAYLQMNSLKPEDTAVYYCTTDCDDHCGWGQGTLVTVSS
# notes: as for B1
# Molecular target: T3, TSLP on over-expressing Expi293 cells (UniProt Q969D9 29-159, limits assumed)
# T3 construct: whole, on cells; Target of the flow cytometry assay; also called cytokine over-expressing Expi293 cells
# Assay: flow cytometry titration on TSLP over-expressing Expi293 cells
# Method: (§1) All incubations and washes were in buffer containing PBS+1% BSA. MFI Ratio is defined by the mean fluorescence intensity (MFI) of the cytokine over-expressing Expi293 cell over the Expi293 parent cell. […] EC50 was calculated in GraphPad Prism.
row,Binder,EC50 [nM]
1,B1,0.37
2,B2,0.18
3,B3,0.5

# Molecular target: T4, TSLP (UniProt Q969D9 29-159)
# T4 construct: Soluble analyte of the SPR assay
# Assay: SPR, Carterra LSA, antibody amine-coupled, 1:1 model
# Method: (§2) SPR experiments were performed on a Carterra LSA SPR biosensor equipped with a HC30M chip at 25° C. in HBS-TE. Antibodies were diluted to 10 μg/mL and amine-coupled to the sensor chip by EDC/NHS activation, followed by ethanolamine HCl quenching. Increasing concentrations of analyte were flowed over the sensor chip in HBS-TE with 0.5 mg/mL BSA with 5-minute association and 15-minute dissociation. Following each injection cycle the surface was regenerated with 2× 30-second injections of IgG elution buffer (Thermo). Data were analyzed in Carterra's Kinetics Tool software with 1:1 binding model.
Binder,Kd [nM],koff [s⁻¹],kon [M⁻¹ s⁻¹]
B4,19.4,0.000672,34700
B5,10.2,0.000445,43600
B6,10.6,0.00113,106000
B7,22.3,0.00178,79700
B8,5.12,0.000351,68500
B9,10.8,0.00177,164000
B10,9.67,0.000433,44700
B11,27.7,0.00209,75300
B12,0.223,0.000181,809000
B1,19.1,0.00114,59900
B2,31.4,0.0016,51000
B3,13.9,0.00137,98700

# Molecular target: T1, IL1RL2 over-expressed on Expi293 cells
# Assay: flow cytometry, over-expressing Expi293 vs parent cells, 100 nM antibody;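 also: ratio is mean fluorescence intensity on over-expressing Expi293 cells divided by that measured on parental Expi293 cells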
# Method: as §1
row,Binder,100 nM FACS (MFI Ratio)
1,B13,18.1
2,B14,10.2
3,B15,9.22
4,B16,7.16
5,B17,22.4
6,B18,5.46
7,B19,13.9

# Molecular target: T2, IL1RL2
# Assay: SPR (Carterra LSA), antibody immobilised, 1:1 model
# Method: as §2
Binder,Kd [nM],koff [s⁻¹],kon [M⁻¹ s⁻¹]
B13,≤ 0.103,≤ 1e-05,97200
B14,2.14,0.000194,90800
B15,10.2,0.000784,76900
B16,3.82,0.000318,83300
B17,8.48,0.000342,40400
B18,10.5,0.000279,26500
B19,8.13,0.000124,15300

# Molecular target: T3, TSLP on over-expressing Expi293 cells
# Assay: flow cytometry, 100 nM, TSLP over-expressing Expi293 over parent cells
# Method: as §1
row,Binder,100 nM (MFI Ratio) [MFI ratio]
1,B4,178
2,B5,1.3
3,B20,1.5
4,B6,0.7
5,B7,5.1
6,B8,1.6
7,B9,12.3
8,B21,18.4
9,B22,16.5
10,B10,157
11,B23,21
12,B11,2.5
13,B12,21.2
14,B1,80.1
15,B2,20.3
16,B3,76.2
17,B24,0.6
18,B25,0.7
